B1: sp¦P12814¦ACTN1_HUMAN (protein, UniProt P12814 1-892, looked up)
Alpha-actinin-1: MDHYDSQQTNDYMQPEEDWDRDLLLDPAWEKQQRKTFTAWCNSHLRKAGTQIENIEEDFRDGLKLMLLLEVISGERLAKPERGKMRVHKISNVNKALDFIASKGVKLVSIGAEEIVDGNVKMTLGMIWTIILRFAIQDISVEETSAKEGLLLWCQRKTAPYKNVNIQNFHISWKDGLGFCALIHRHRPELIDYGKLRKDDPLTNLNTAFDVAEKYLDIPKMLDAEDIVGTARPDEKAIMTYVSSFYHAFSGAQKAETAANRICKVLAVNQENEQLMEDYEKLASDLLEWIRRTIPWLENRVPENTMHAMQQKLEDFRDYRRLHKPPKVQEKCQLEINFNTLQTKLRLSNRPAFMPSEGRMVSDINNAWGCLEQVEKGYEEWLLNEIRRLERLDHLAEKFRQKASIHEAWTDGKEAMLRQKDYETATLSEIKALLKKHEAFESDLAAHQDRVEQIAAIAQELNELDYYDSPSVNARCQKICDQWDNLGALTQKRREALERTEKLLETIDQLYLEYAKRAAPFNNWMEGAMEDLQDTFIVHTIEEIQGLTTAHEQFKATLPDADKERLAILGIHNEVSKIVQTYHVNMAGTNPYTTITPQEINGKWDHVRQLVPRRDQALTEEHARQQHNERLRKQFGAQANVIGPWIQTKMEEIGRISIEMHGTLEDQLSHLRQYEKSIVNYKPKIDQLEGDHQLIQEALIFDNKHTNYTMEHIRVGWEQLLTTIARTINEVENQILTRDAKGISQEQMNEFRASFNHFDRDHSGTLGPEEFKACLISLGYDIGNDPQGEAEFARIMSIVDPNRLGVVTFQAFIDFMSRETADTDTADQVMASFKILAGDKNYITMDELRRELPPDQAEYCIARMAPYTGPDSVPGALDYMSFSTALYGESDL
B2: sp¦O00273¦DFFA_HUMAN (protein, UniProt O00273 1-331, looked up)
DNA fragmentation factor …: MEVTGDAGVPESGEIRTLKPCLLRRNYSREQHGVAASCLEDLRSKACDILAIDKSLTPVTLVLAEDGTIVDDDDYFLCLPSNTKFVALASNEKWAYNNSDGGTAWISQESFDVDETDSGAGLKWKNVARQLKEDLSSIILLSEEDLQMLVDAPCSDLAQELRQSCATVQRLQHTLQQVLDQREEVRQSKQLLQLYLQALEKEGSLLSKQEESKAAFGEEVDAVDTGISRETSSDVALASHILTALREKQAPELSLSSQDLELVTKEDPKALAVALNWDIKKTETVQEACERELALRLQQTQSLHSLRSISASKASPPGDLQNPKRARQDPT
B3: sp¦Q99614¦TTC1_HUMAN (protein, UniProt Q99614 1-292, looked up)
Tetratricopeptide repeat …: MGEKSENCGVPEDLLNGLKVTDTQEAECAGPPVPDPKNQHSQSKLLRDDEAHLQEDQGEEECFHDCSASFEEEPGADKVENKSNEDVNSSELDEEYLIELEKNMSDEEKQKRREESTRLKEEGNEQFKKGDYIEAESSYSRALEMCPSCFQKERSILFSNRAAARMKQDKKEMAINDCSKAIQLNPSYIRAILRRAELYEKTDKLDEALEDYKSILEKDPSIHQAREACMRLPKQIEERNERLKEEMLGKLKDLGNLVLRPFGLSTENFQIKQDSSTGSYSINFVQNPNNNR
B4: sp¦O14745¦NHRF1_HUMAN (protein, UniProt O14745 2-358, looked up)
Na(+)/H(+) exchange …: SADAAAGAPLPRLCCLEKGPNGYGFHLHGEKGKLGQYIRLVEPGSPAEKAGLLAGDRLVEVNGENVEKETHQQVVSRIRAALNAVRLLVVDPETDEQLQKLGVQVREELLRAQEAPGQAEPPAAAEVQGAGNENEPREADKSHPEQRELRPRLCTMKKGPSGYGFNLHSDKSKPGQFIRSVDPDSPAEASGLRAQDRIVEVNGVCMEGKQHGDVVSAIRAGGDETKLLVVDRETDEFFKKCRVIPSQEHLNGPLPVPFTNGEIQKENSREALAEAALESPRPALVRSASSDTSEELNSQDSPPKQDSTAPSSTSSSDPILDFNISLAMAKERAHQKRSSKRAPQMDWSKKNELFSNL
B5: sp¦Q9Y3F4¦STRAP_HUMAN (protein, UniProt Q9Y3F4 1-350, looked up)
Serine-threonine kinase …: MAMRQTPLTCSGHTRPVVDLAFSGITPYGYFLISACKDGKPMLRQGDTGDWIGTFLGHKGAVWGATLNKDATKAATAAADFTAKVWDAVSGDELMTLAHKHIVKTVDFTQDSNYLLTGGQDKLLRIYDLNKPEAEPKEISGHTSGIKKALWCSEDKQILSADDKTVRLWDHATMTEVKSLNFNMSVSSMEYIPEGEILVITYGRSIAFHSAVSLDPIKSFEAPATINSASLHPEKEFLVAGGEDFKLYKYDYNSGEELESYKGHFGPIHCVRFSPDGELYASGSEDGTLRLWQTVVGKTYGLWKCVLPEEDSGELAKPKIGFPETTEEELEEIASENSDCIFPSAPDVKA
B6: sp¦P41218¦MNDA_HUMAN (protein, UniProt P41218 1-407, looked up)
Myeloid cell nuclear …: MVNEYKKILLLKGFELMDDYHFTSIKSLLAYDLGLTTKMQEEYNRIKITDLMEKKFQGVACLDKLIELAKDMPSLKNLVNNLRKEKSKVAKKIKTQEKAPVKKINQEEVGLAAPAPTARNKLTSEARGRIPVAQKRKTPNKEKTEAKRNKVSQEQSKPPGPSGASTSAAVDHPPLPQTSSSTPSNTSFTPNQETQAQRQVDARRNVPQNDPVTVVVLKATAPFKYESPENGKSTMFHATVASKTQYFHVKVFDINLKEKFVRKKVITISDYSECKGVMEIKEASSVSDFNQNFEVPNRIIEIANKTPKISQLYKQASGTMVYGLFMLQKKSVHKKNTIYEIQDNTGSMDVVGSGKWHNIKCEKGDKLRLFCLQLRTVDRKLKLVCGSHSFIKVIKAKKNKEGPMNVN
B7: sp¦Q8NC51¦PAIRB_HUMAN (protein, UniProt Q8NC51 2-408, looked up)
SERPINE1 mRNA-binding protein …: PGHLQEGFGCVVTNRFDQLFDDESDPFEVLKAAENKKKEAGGGGVGGPGAKSAAQAAAQTNSNAAGKQLRKESQKDRKNPLPPSVGVVDKKEETQPPVALKKEGIRRVGRRPDQQLQGEGKIIDRRPERRPPRERRFEKPLEEKGEGGEFSVDRPIIDRPIRGRGGLGRGRGGRGRGMGRGDGFDSRGKREFDRHSGSDRSSFSHYSGLKHEDKRGGSGSHNWGTVKDELTESPKYIQKQISYNYSDLDQSNVTEETPEGEEHHPVADTENKENEVEEVKEEGPKEMTLDEWKAIQNKDRAKVEFNIRKPNEGADGQWKKGFVLHKSKSEEAHAEDSVMDHHFRKPANDITSQLEINFGDLGRPGRGGRGGRGGRGRGGRPNRGSRTDKSSASAPDVDDPEAFPALA
B8: Serine protease 57 (protein, UniProt Q6UWY2 32-283, looked up)
Serine protease 57: AQIIGGHEVTPHSRPYMASVRFGGQHHCGGFLLRARWVVSAAHCFSHRDLRTGLVVLGAHVLSTAEPTQQVFGIDALTTHPDYHPMTHANDICLLRLNGSAVLGPAVGLLRPPGRRARPPTAGTRCRVAGWGFVSDFEELPPGLMEAKVRVLDPDVCNSSWKGHLTLTMLCTRSGDSHRRGFCSADSGGPLVCRNRAHGLVSFSGLWCGDPKTPDVYTQVSAFVAWIWDVVRRSSPQPGPLPGTTRPPGEAA
B9: sp¦P50502¦F10A1_HUMAN (protein, UniProt P50502 1-369, looked up)
Hsc70-interacting protein: MDPRKVNELRAFVKMCKQDPSVLHTEEMRFLREWVESMGGKVPPATQKAKSEENTKEEKPDSKKVEEDLKADEPSSEESDLEIDKEGVIEPDTDAPQEMGDENAEITEEMMDQANDKKVAAIEALNDGELQKAIDLFTDAIKLNPRLAILYAKRASVFVKLQKPNAAIRDCDRAIEINPDSAQPYKWRGKAHRLLGHWEEAAHDLALACKLDYDEDASAMLKEVQPRAQKIAEHRRKYERKREEREIKERIERVKKAREEHERAQREEEARRQSGAQYGSFPGGFPGGMPGNFPGGMPGMGGGMPGMAGMPGLNEILSDPEVLAAMQDPEVMVAFQDVAQNPANMSKYQSNPKVMNLISKLSAKFGGQA

The molecules below were run on human HL60 cells (assay: SWATH-MS proteomics, differential protein representation, akirin2 KO vs WT HL60 cells). Conditions: Over-represented in KO; KO vs WT HL60 cells.
Assay type: cell-based
Description: Total proteins were extracted from WT and akirin2 KO HL60 cells using the AllPrep DNA/RNA/Protein Mini Kit (Qiagen) and protein concentration was determined using the BCA Protein Assay with BSA (Sigma–Aldrich) as standard. Protein extracts (150 µg per sample, n=3 biological replicates) from each WT and KO cells were trypsin digested using the FASP Protein Digestion Kit (Expedeon Ltd., Abcam, Cambridge, U.K.) and sequencing grade trypsin (Promega, Madison, WI, U.S.A.) following manufacturer’s recommendations. The resulting peptides were finally desalted on to OMIX Pipette tips C18 (Agilent Technologies, Santa Clara, CA, U.S.A.), dried down and stored at −20 °C until mass spectrometry analysis. […] Three micrograms of each protein digest from the three biological replicates of WT and akirin2 KO HL60 cells were used for the generation of the reference spectral ion library as part of the SWATH-MS analysis.
Peptides were eluted in a 120-min gradient from 5 to 30% solvent B in solvent A followed by 15-min gradient from 30 to 60% solvent B in solvent A (solvent A: 0.1% formic acid in water, solvent B: 0.1% formic acid in acetonitrile) and directly injected into the mass spectrometer for analysis. For IDA experiments, the mass spectrometer was set to scanning full spectra (350–1400 m/z) using 250 ms accumulation time per spectrum, followed by up to 50 MS/MS scans (100–1500 m/z). Candidate ions with a charge state between +2 and +5 counts per second above a minimum threshold of 100 were isolated for fragmentation. One MS/MS spectrum was collected for 100 ms, before adding those precursor ions to the exclusion list for 15 s (mass spectrometer operated by Analyst TF 1.6, AB Sciex). Dynamic background subtraction was turned off. MS/MS analyses were recorded in high-sensitivity mode with rolling collision energy on and a collision energy spread of 5. For SWATH quantitative analysis, six independent samples (three replicates from WT and akirin2 KO HL60 cells, 5 µg each) were subjected to the cyclic DIA of mass spectra using the SWATH variable windows calculator (V 1.0, AB Sciex) and the SWATH acquisition method editor (AB Sciex), similar to established methods. […] For these experiments, a 50-ms survey scan (350–1400 m/z) was acquired at the beginning of each cycle, and SWATH–MS/MS spectra were collected from 100–1500 m/z for 70 ms at high-sensitivity mode, resulting in a cycle time of 3.6 s. Collision energy for each window was determined according to the calculation for a charge +2 ion-centered upon the window with a collision energy spread of 15. To create a spectral library of all the detectable peptides in the samples, the IDA MS raw files were combined and subjected to database search in unison using ProteinPilot software v. 5.0.1 (AB Sciex) with the Paragon algorithm. […] The detected protein threshold was set at 0.05. An independent false discovery rate (FDR) analysis, using the target–decoy approach provided by Protein Pilot (AB Sciex; https://sciex.com/products/software/proteinpilot-software), was used to assess the quality of identifications. Positive identifications were considered when identified proteins reached 1% of global FDR. […] Global normalization was performed according to the Total Area Sums (TAS) of all detected proteins in the samples. […] Heatmaps were prepared using the Heatmapper (http://www.heatmapper.ca/expression/) with average linkage and Euclidean distance measurement method.

| Molecule | Fold Change | Log (Fold Change) |
| --- | --- | --- |
| B1 | 1.274 | 0.1053 |
| B2 | 1.2886 | 0.1101 |
| B3 | 1.292 | 0.1114 |
| B4 | 1.293 | 0.1116 |
| B5 | 1.284 | 0.1086 |
| B6 | 1.264 | 0.1017 |
| B7 | 1.286 | 0.1092 |

Same assay, conditions: SWATH-MS, akirin2 KO vs WT HL60 cells; over-represented in KO

| Molecule | Fold Change | Log (Fold Change) |
| --- | --- | --- |
| B8 | 3.338 | 0.5235 |

Same assay, conditions: akirin2 KO vs WT HL60 cells; sheet "Over-represented in KO"

| Molecule | Fold Change | Log (Fold Change) |
| --- | --- | --- |
| B9 | 1.2518 | 0.09753 |

Source: article PMC8298264, “Function of cofactor Akirin2 in the regulation of gene expression in model human neutrophil-like HL60 cells” (Bioscience Reports, 2021)
